US12286461B2, “Recombinant fused polypeptide and use thereof” (priority 2019, dated 2025)

Experiments:
[1] = tested on: SD rats with CCl4-induced hepatic fibrosis; experiment: CCl4-induced hepatic fibrosis animal model; assay type: in vivo; settings: 40% CCl4 i.p. twice a week for 8 weeks, fused polypeptides 6 mg/kg s.c. once every five days
Procedure: Modeling was performed on the rats. Each group other than the blank group was injected with 40% CCl4 intraperitoneally twice a week, the first injection was performed at 3 mL/kg, and then injection was performed at 2 mL/kg. Modeling was performed for 8 weeks to induce hepatic fibrosis. After the intraperitoneal injection of CCl4 for the fourth time, the drugs were administered according to Table 3. After induction for 8 weeks, the administration was stopped. The SD rats were dissected the next day, and blood was taken. The liver tissue was stored in a refrigerator at −80° C. for further use. The expression of HYP in the hepatic tissue of rats was detected. [table]

pneumonia fungi = experiment: Mouse pneumonia model, fungal pneumonia; assay type: in vivo; settings: BALB/C mouse pneumonia model, nasal drip; average ± standard deviation
From the text: (§1) A mouse pneumonia model was successfully established by using a nasal drip method. BALB/C mice with a body weight of 18-24 g were selected, and then anesthetized with ether on day 0, day 1 and day 2, respectively, prepared Streptococcus pneumoniae bacteria solution, adenovirus concentrated solution, Mycoplasma pneumoniae, Chlamydia pneumoniae, protozoa and pneumonia fungi were slowly dropped into the nasal cavity of the mice, so that the bacteria solutions entered the trachea and bronchi, and the bacteria solutions were prevented from flowing into the esophagus during the operation to avoid inactivation of the bacteria solutions, so that the mouse pneumonia model was established. After the model was successfully established, the recombinant fused polypeptides according to the present invention were administered.

Mycoplasma pneumoniae = experiment: Mouse pneumonia model, mycoplasma pneumonia; assay type: in vivo; settings: BALB/C mouse pneumonia model, nasal drip; average ± standard deviation
From the text: as §1

[2] = tested on: SD rats with renal fibrosis; experiment: Renal fibrosis animal model (ureter ligation); assay type: in vivo; settings: 6 mg/kg s.c. once every five days, after 15 days
Procedure: A renal fibrosis animal model was established. SD rats were anesthetized with 4% chloral hydrate, injected with 1 mL/100 g intraperitoneally, fixed to an operation board, and sterilized in an operation area for further use. […] Muscular layers and abdominal walls were sewed layer by layer, the suture was disinfected with alcohol. After SD rats woke up, the rats were put into a cage for feeding. In the blank group, ureter was not ligated, and other steps were the same.
Then, the animals fell into a blank group, a model group, and recombinant fused polypeptide administration groups, and the administration was started on the second day after the operation, and was performed for 15 days. After administration for 15 days, blood was taken and supernatant was taken to detect the content of TGF-β1 in serum.

Chlamydia pneumoniae = experiment: Mouse pneumonia model, chlamydia pneumonia; assay type: in vivo; settings: BALB/C mouse pneumonia model, nasal drip; average ± standard deviation
From the text: as §1

[3] = tested on: SD rats with bleomycin-induced pulmonary fibrosis; experiment: Bleomycin-induced pulmonary fibrosis animal model; assay type: in vivo; settings: for Survival rate (%): bleomycin 5 mg/kg intratracheal, dosage 10 mg/kg (Table 2), administration cycle 15 days from day 7 after modeling; for hydroxyproline (HYP) content in lung tissue / content of TGF-β1 in serum, difference from the model group: bleomycin pulmonary fibrosis, after 15 days; for hydroxyproline (HYP) content in lung tissue: 10 mg/kg s.c. once every five days, FIG. 1; for content of TGF-β1 in serum, difference from the model group: fused polypeptides 10 mg/kg s.c. once every five days, nintedanib 25 mg/kg intragastric once a day
Procedure: SD rats were anesthetized by intraperitoneal injection of 4% chloral hydrate with a concentration of 1 mL/100 g. After anesthesia, the rats were fixed and their necks were disinfected by using cotton with 75% alcohol. The skin of the rat neck was longitudinally cut with scissors, and the fascia and muscle were longitudinally bluntly torn with tweezers to expose the trachea. A syringe was inserted into the trachea to inject 5 mg/kg bleomycin, while a blank group was injected with an equal amount of normal saline. Then a rat plate was quickly erected and rotated, the rats' breathing was observed, the neck wound was sterilized after rotation and was sewn, and an amoxicillin anti-inflammatory drug was sprinkled on the suture. After the operation, the rats were put back into a dry and clean cage for resting, waiting for awakening. The rats were awakened after about 1-2 hours, and then fed normally. On the 7th day after modeling, modeling group animals randomly fell into a model group, a Nintedanib positive drug group, recombinant fused polypeptide 1, 2, 3 and 4 dosage groups, and a normal control group, and the groups were administered separately for an administration cycle of 15 days. Living situations of rats were observed every day and their weights were weighed. After administration for 15 days, the eyeballs were removed and blood was taken, the rats were dissected, and lungs were taken. The content of TGF-β1 in serum and the content of HYP in lung tissues were detected.

protozoa = experiment: Mouse pneumonia model, protozoal pneumonia; assay type: in vivo; settings: BALB/C mouse pneumonia model, nasal drip; average ± standard deviation
From the text: as §1

adenovirus = experiment: Mouse pneumonia model, viral pneumonia; assay type: in vivo; settings: BALB/C mouse pneumonia model, nasal drip; average ± standard deviation
From the text: as §1

pulmonary infections = experiment: Mouse pneumonia model, pneumonia caused by pulmonary infections; assay type: in vivo, BALB/C mice; settings: BALB/C mouse pneumonia model, nasal drip, average ± standard deviation
From the text: as §1

[4] = tested on: mice with bleomycin-induced skin fibrosis; experiment: Bleomycin-induced skin fibrosis model; assay type: in vivo, C57/BL black mice; settings: C57/BL mice, bleomycin 10 μg/mL s.c. daily for 28 days, 10 mg/kg s.c. once every five days, 6 times, FIG. 6
Procedure: Bleomycin (10 μg/mL) was injected subcutaneously every day for 28 days to form skin fibrosis. During the modeling period, the administration groups were given drugs for treatment. After modeling, the mice were killed on the next day, and the skin tissue of the mouse back was taken to detect the content of HYP in the skin tissue. [table]

[5] = tested on: mice with myocardial fibrosis; experiment: Isoprenaline-induced myocardial fibrosis animal model; assay type: in vivo; settings: BALB/c mice, isoprenaline 5 mg/kg s.c. daily for 7 days, 12 mg/kg s.c. (Table 5), after the 8th day, FIG. 5
Procedure: In the model group, the experimental mice were injected with isoprenaline (ISO) (5 mg/kg) subcutaneously on the back of the mice every day for 7 consecutive days, and the mice were injected with normal saline subcutaneously (200 μL/mouse) every day. In the blank group, normal saline was injected subcutaneously (200 μL/mouse) every day. […] After the 8th day, blood was taken and was centrifuged, the supernatant was taken, and the content of TGF-β1 in serum was detected.

Streptococcus pneumoniae = experiment: Mouse pneumonia model, bacterial pneumonia; assay type: in vivo; settings: BALB/C mouse pneumonia model, nasal drip; average ± standard deviation
From the text: as §1

[6] = listed as recombinant fused polypeptide III
[7] = listed as recombinant fused polypeptide IV

B1: PRCWRGEGGGGIVRRADRAAVPGGGGRGDAEAAAKEAAAKEAAAKEAAAKKSDKPGGGGTSLDASIIWAMMQNGGGGLSKL (protein)
chain: PRCWRGEGGGGIVRRADRAAVPGGGGRGDAEAAAKEAAAKEAAAKEAAAKKSDKPGGGGTSLDASIIWAMMQNGGGGLSKL
notes: Recombinant fused polypeptide X-linker2-Y expressed in 293 cells
[1]; FIG. 3, listed as Recombinant fused polypeptide 3
  content of HYP in liver tissue, difference from the model group: highly significantly different from the model group (***P<0.001)
[1]; FIG. 3, listed as recombinant fused polypeptide III
  content of HYP in liver tissue, difference from the model group: can lower the HYP content
Pneumonia fungi
  Inhibitory effect, Fungal pneumonia: 65.98 ± 3.64
Mycoplasma pneumoniae
  Inhibitory effect, Mycoplasma pneumonia: 45.53 ± 4.33
[2]; FIG. 4, listed as recombinant fused polypeptide 3, 6 mg/kg
  content of TGF-β1 in serum, difference from the model group: highly significantly different from the model group (**P<0.01)
[2]; FIG. 4, listed as recombinant fused polypeptide III, 6 mg/kg
  content of TGF-β1 in serum, difference from the model group: can lower the TGF-β1 content
Chlamydia pneumoniae
  Inhibitory effect, Chlamydia pneumonia: 55.78 ± 4.32
[3]
  Survival rate (%): 85.7%
  hydroxyproline (HYP) content in lung tissue: can lower the hydroxyproline content
[3]; listed as fused polypeptide 3
  Survival rate (%): equivalent to that of the positive drug group
[3]; FIG. 2, listed as fused polypeptide 3
  content of TGF-β1 in serum, difference from the model group: highly significantly different from the model group (**P<0.01)
[3]; FIG. 2, listed as recombinant fused polypeptide III
  content of TGF-β1 in serum, difference from the model group: can lower the TGF-β1 content
protozoa
  Inhibitory effect, Protozoal pneumonia: 68.29 ± 4.70
adenovirus
  Inhibitory effect, Viral pneumonia: 69.54 ± 7.49
Pulmonary infections
  Inhibitory effect, Pneumonia caused by pulmonary infections: 58.81 ± 4.10
Pulmonary infections; [6]
  Inhibitory effect, Pneumonia caused by pulmonary infections: inhibitory effect
[4]; listed as recombinant fused polypeptide 3, 10 mg/kg
  content of HYP in skin tissue, difference from the model group: highly significantly different from the model group (**P<0.01)
[4]; listed as recombinant fused polypeptide III, 10 mg/kg
  content of HYP in skin tissue, difference from the model group: can lower the hydroxyproline content
[5]; listed as recombinant fused polypeptide 3
  content of TGF-β1 in serum, difference from the model group: significantly different from the model group (**P<0.01)
[5]; [6]
  content of TGF-β1 in serum, difference from the model group: can lower the TGF-β1 content
Streptococcus pneumoniae
  Inhibitory effect, Bacterial pneumonia: 48.79 ± 7.26

B2: Acetyl-SDKPGGGGTSLDASIIWAMMQNGGGGLSKLAEAAAKEAAAKEAAAKEAAAKKPRCWRGEGGGGIVRRADRAAVPGGGGRGD (protein)
chain: SDKPGGGGTSLDASIIWAMMQNGGGGLSKLAEAAAKEAAAKEAAAKEAAAKKPRCWRGEGGGGIVRRADRAAVPGGGGRGD
modifications: N-acetyl
notes: Recombinant fused polypeptide Y-linker2-X expressed in 293 cells
[1]; FIG. 3, listed as Recombinant fused polypeptide 4
  content of HYP in liver tissue, difference from the model group: highly significantly different from the model group (***P<0.001)
[1]; FIG. 3, listed as recombinant fused polypeptide IV
  content of HYP in liver tissue, difference from the model group: can lower the HYP content
Pneumonia fungi
  Inhibitory effect, Fungal pneumonia: 54.12 ± 5.12
Mycoplasma pneumoniae
  Inhibitory effect, Mycoplasma pneumonia: 47.30 ± 5.30
[2]; FIG. 4, listed as recombinant fused polypeptide 4, 6 mg/kg
  content of TGF-β1 in serum, difference from the model group: highly significantly different from the model group (***P<0.001)
[2]; FIG. 4, listed as recombinant fused polypeptide IV, 6 mg/kg
  content of TGF-β1 in serum, difference from the model group: can lower the TGF-β1 content
Chlamydia pneumoniae
  Inhibitory effect, Chlamydia pneumonia: 55.26 ± 6.12
[3]
  Survival rate (%): 92.9%
  hydroxyproline (HYP) content in lung tissue: can lower the hydroxyproline content
[3]; FIG. 2, listed as recombinant fused polypeptide 4
  content of TGF-β1 in serum, difference from the model group: significantly different from the model group (*P<0.05)
[3]; FIG. 2, listed as recombinant fused polypeptide IV
  content of TGF-β1 in serum, difference from the model group: can lower the TGF-β1 content
protozoa
  Inhibitory effect, Protozoal pneumonia: 63.45 ± 4.68
adenovirus
  Inhibitory effect, Viral pneumonia: 78.12 ± 8.27
Pulmonary infections
  Inhibitory effect, Pneumonia caused by pulmonary infections: 56.93 ± 5.28
Pulmonary infections; [7]
  Inhibitory effect, Pneumonia caused by pulmonary infections: inhibitory effect
[4]; listed as recombinant fused polypeptide 4, 10 mg/kg
  content of HYP in skin tissue, difference from the model group: highly significantly different from the model group (***P<0.001)
[4]; listed as recombinant fused polypeptide IV, 10 mg/kg
  content of HYP in skin tissue, difference from the model group: can lower the hydroxyproline content
[5]; listed as recombinant fused polypeptide 4
  content of TGF-β1 in serum, difference from the model group: significantly different from the model group (**P<0.01)
[5]; [7]
  content of TGF-β1 in serum, difference from the model group: can lower the TGF-β1 content
Streptococcus pneumoniae
  Inhibitory effect, Bacterial pneumonia: 48.61 ± 6.54
